In publication PMC10397247:
Like-named read-outs stand apart in the source and are kept apart here. Values belong to the binder of their own block, whether it stands above or below them.

Assays:
Assay in all cases: two-hybrid library CCmax;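 note: natural log of median RNA to DNA barcode read ratio; higher means stronger binding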
4H1579-AA = biological target: T1, 4H1579-AA; settings: mean of both orientations
T1 chain: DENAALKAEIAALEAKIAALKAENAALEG

4H3413-AA = biological target: T2, 4H3413-AA; settings: mean of both orientations
T2 chain: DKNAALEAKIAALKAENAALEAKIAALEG

4H1513-AA = biological target: T3, 4H1513-AA; settings: mean of both orientations
T3 chain: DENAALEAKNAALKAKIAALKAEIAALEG

4H1842-AA = biological target: T4, 4H1842-AA; settings: mean of both orientations
T4 chain: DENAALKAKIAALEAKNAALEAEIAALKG

4H2198-AA = biological target: T5, 4H2198-AA; settings: mean of both orientations
T5 chain: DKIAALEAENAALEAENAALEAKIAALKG

4H1401-AA = biological target: T6, 4H1401-AA
T6 chain: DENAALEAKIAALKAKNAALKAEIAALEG

4H1594-AA = biological target: T7, 4H1594-AA; settings: mean of both orientations
T7 chain: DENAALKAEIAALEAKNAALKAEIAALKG

4H174-AA = biological target: T8, 4H174-AA; settings: mean of both orientations
T8 chain: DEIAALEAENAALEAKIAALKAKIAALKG

4H3133-AA = biological target: T9, 4H3133-AA; settings: mean of both orientations
T9 chain: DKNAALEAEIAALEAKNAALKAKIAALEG

4H2553-AA = biological target: T10, 4H2553-AA
T10 chain: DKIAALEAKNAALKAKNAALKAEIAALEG

4H3378-AA = biological target: T11, 4H3378-AA; settings: mean of both orientations
T11 chain: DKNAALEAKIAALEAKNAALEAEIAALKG

4H340-AA = biological target: T12, 4H340-AA
T12 chain: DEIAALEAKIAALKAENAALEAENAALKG

4H1385-AA = biological target: T13, 4H1385-AA
T13 chain: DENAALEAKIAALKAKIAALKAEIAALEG

4H1351-AA = biological target: T14, 4H1351-AA; settings: mean of both orientations
T14 chain: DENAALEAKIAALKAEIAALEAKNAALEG

4H32-AA = biological target: T15, 4H32-AA; settings: mean of both orientations
T15 chain: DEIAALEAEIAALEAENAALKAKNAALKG

4H1874-AA = biological target: T16, 4H1874-AA; settings: mean of both orientations
T16 chain: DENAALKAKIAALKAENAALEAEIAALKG

4H1388-AA = biological target: T17, 4H1388-AA; settings: mean of both orientations
T17 chain: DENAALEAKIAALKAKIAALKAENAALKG

O11-AA = biological target: T18, O11-AA; settings: mean of both orientations
T18 chain: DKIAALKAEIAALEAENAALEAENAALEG

4H2837-AA = biological target: T19, 4H2837-AA; settings: mean of both orientations
T19 chain: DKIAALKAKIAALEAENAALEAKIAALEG

4H2393-AA = biological target: T20, 4H2393-AA; settings: mean of both orientations
T20 chain: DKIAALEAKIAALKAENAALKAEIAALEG

4H2165-AA = biological target: T21, 4H2165-AA; settings: mean of both orientations
T21 chain: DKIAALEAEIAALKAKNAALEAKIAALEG

4H2944-AA = biological target: T22, 4H2944-AA; settings: mean of both orientations
T22 chain: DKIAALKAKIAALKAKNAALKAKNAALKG

4H3655-AA = biological target: T23, 4H3655-AA; settings: mean of both orientations
T23 chain: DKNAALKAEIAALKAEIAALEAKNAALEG

4H2754-AA = biological target: T24, 4H2754-AA; settings: mean of both orientations
T24 chain: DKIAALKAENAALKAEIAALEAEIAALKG

4H3627-AA = biological target: T25, 4H3627-AA; settings: mean of both orientations
T25 chain: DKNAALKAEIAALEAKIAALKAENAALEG

4H3844-AA = biological target: T26, 4H3844-AA; settings: mean of both orientations
T26 chain: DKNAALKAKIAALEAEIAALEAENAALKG

interaction score (4H1579-AA): -1.2
interaction score (4H3413-AA): 1.51
interaction score (4H1513-AA): -1.48
interaction score (4H1842-AA): 0.334
interaction score (4H2198-AA): -0.878
interaction score (4H1401-AA; mean of both orientations): 1.11
interaction score (4H1594-AA): 1.18
interaction score (4H174-AA): 0.83
interaction score (4H3133-AA): 0.253
interaction score (4H2553-AA; mean of both orientations): -1.34
interaction score (4H3378-AA): -0.0826
interaction score (4H340-AA; mean of both orientations): -1.45
interaction score (4H1385-AA; mean of both orientations): -1.04
interaction score (4H1351-AA): -1.27
interaction score (4H32-AA): -1.07
interaction score (4H1874-AA): 2.14
interaction score (4H1388-AA): -1.2
B1: 4H1310-AA (peptide)
chain: DENAALEAKIAALEAENAALKAKIAALKG

interaction score (4H1579-AA): -0.0818
interaction score (4H1842-AA): -1.47
interaction score (4H174-AA): 0.819
interaction score (O11-AA): 0.214
interaction score (4H1385-AA): 2.06
B2: 4H1385-AA (peptide)
chain: DENAALEAKIAALKAKIAALKAEIAALEG

interaction score (4H2837-AA): 1.61
interaction score (4H3413-AA): 0.857
interaction score (4H1513-AA): -1.9
interaction score (4H2198-AA): 1.85
interaction score (4H1401-AA): -1.49
interaction score (4H1594-AA): -0.109
interaction score (4H2393-AA): -1.43
interaction score (4H2165-AA): -1.62
interaction score (4H3133-AA): -0.677
interaction score (4H2944-AA): -1.67
interaction score (4H2553-AA): -1.65
interaction score (4H3655-AA): -1.48
interaction score (4H2754-AA): -1.71
interaction score (4H3378-AA): -0.723
interaction score (4H340-AA; mean of both orientations): -1.93
interaction score (4H3627-AA): -1.38
interaction score (4H3844-AA): -0.79
interaction score (4H32-AA): 0.0762
interaction score (4H1874-AA): 1.26
B3: 4H1401-AA (peptide)
chain: DENAALEAKIAALKAKNAALKAEIAALEG

interaction score (4H1579-AA): -1.39
interaction score (4H3413-AA): 0.554
interaction score (4H1513-AA): -1.67
interaction score (4H1842-AA): -0.709
interaction score (4H2198-AA): -1.52
interaction score (4H1401-AA; mean of both orientations): 0.545
interaction score (4H1594-AA): 0.842
interaction score (4H174-AA): -0.4
interaction score (4H3133-AA): -0.11
interaction score (4H2553-AA; mean of both orientations): -1.85
interaction score (4H3378-AA): -0.868
interaction score (4H340-AA; mean of both orientations): -1.35
interaction score (4H1385-AA): -1.1
interaction score (4H1351-AA): -1.31
interaction score (4H32-AA): -1.11
interaction score (4H1874-AA): 0.966
interaction score (4H1388-AA): -1.65
B4: 4H1142-AA (peptide)
chain: DENAALEAEIAALKAKNAALEAKIAALKG

interaction score (4H2837-AA): -1.49
interaction score (4H3413-AA): -1.92
interaction score (4H1513-AA): 1.5
interaction score (4H2198-AA): -1.56
interaction score (4H1401-AA; mean of both orientations): -0.873
interaction score (4H1594-AA): -1.13
interaction score (4H2393-AA): -1.3
interaction score (4H2165-AA): -1.33
interaction score (4H3133-AA): -2.15
interaction score (4H2944-AA): -0.0983
interaction score (4H2553-AA; mean of both orientations): -0.371
interaction score (4H3655-AA): -0.01
interaction score (4H2754-AA): -0.638
interaction score (4H3378-AA): -1.72
interaction score (4H340-AA): -1.49
interaction score (4H3627-AA): -0.179
interaction score (4H1351-AA): -1.51
interaction score (4H3844-AA): -0.484
interaction score (4H32-AA): -2.43
interaction score (4H1874-AA): -1.61
interaction score (4H1388-AA): 0.435
B5: 4H1153-AA (peptide)
chain: DENAALEAENAALEAEIAALEAEIAALEG

interaction score (O11-AA): -0.612
interaction score (4H1385-AA; mean of both orientations): 2.18
B6: 4H1350-AA (peptide)
chain: DENAALEAKIAALKAEIAALEAKIAALKG
